Source: patent publication US20220411520A1 (GMAX BIOPHARM, published 2022)

Key:
[1] = target: T1, human gastric inhibitory polypeptide receptor (hGIPR) (human, UniProt P48546 22-466); assay: cell-based or functional assay
T1 sequence: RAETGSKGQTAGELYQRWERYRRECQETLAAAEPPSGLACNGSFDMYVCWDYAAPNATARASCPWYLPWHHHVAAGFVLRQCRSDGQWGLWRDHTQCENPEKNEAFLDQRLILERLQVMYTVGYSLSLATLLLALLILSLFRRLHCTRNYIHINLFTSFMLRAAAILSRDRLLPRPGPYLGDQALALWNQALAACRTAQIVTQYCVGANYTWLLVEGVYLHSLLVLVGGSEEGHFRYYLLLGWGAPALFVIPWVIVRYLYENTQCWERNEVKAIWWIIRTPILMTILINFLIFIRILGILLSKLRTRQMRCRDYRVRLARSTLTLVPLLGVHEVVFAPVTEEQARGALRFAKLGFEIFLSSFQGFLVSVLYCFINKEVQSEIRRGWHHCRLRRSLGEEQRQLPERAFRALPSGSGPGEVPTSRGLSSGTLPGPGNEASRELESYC

[2] = target: T2, monkey GIP receptor (maGIPR) (monkey, UniProt P48546 22-466 (human entry), limits assumed); assay: cell-based or functional assay
T2 chain: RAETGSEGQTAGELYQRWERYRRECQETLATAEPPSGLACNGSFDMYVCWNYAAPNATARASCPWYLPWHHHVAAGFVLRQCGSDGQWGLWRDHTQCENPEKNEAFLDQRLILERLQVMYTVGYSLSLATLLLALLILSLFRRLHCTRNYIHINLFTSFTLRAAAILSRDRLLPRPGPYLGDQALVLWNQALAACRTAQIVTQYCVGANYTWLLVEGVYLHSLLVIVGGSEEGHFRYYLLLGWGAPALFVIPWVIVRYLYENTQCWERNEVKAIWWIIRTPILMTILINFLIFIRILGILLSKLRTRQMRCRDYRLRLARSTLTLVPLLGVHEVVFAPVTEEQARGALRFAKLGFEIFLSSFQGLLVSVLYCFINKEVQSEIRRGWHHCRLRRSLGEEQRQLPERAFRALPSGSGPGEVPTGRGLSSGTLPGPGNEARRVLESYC

[3] = target: human GLP-1 receptor (hGLP-1R) (human, UniProt P43220 24-463); assay: cell-based or functional assay
[4] = target: T1, human gastric inhibitory polypeptide …; assay: FACS on CHO-DHFR-hGIPR cells
Method: PBS containing 10 mM EDTA was used to detach the CHO-DHFR-hGIPR cells and 10⁵ cells/tube was distributed into 1.5 mL EP tubes, and the supernatant was removed after centrifugation. The negative control sample was resuspended with a loading buffer (PBS, 2% FBS). For the positive control, 200 μL GIPR antibody solution of specific concentration was added to the cells and incubated at room temperature; after incubation, the cells were then centrifuged at 1500 rpm to remove the supernatant, washed with a FACS loading buffer and centrifuged again. The cells were resuspended with addition (200 μL/well) of a FITC labeled goat anti-mouse fluorescent antibody or PE labeled goat anti-human fluorescent antibody at 1:50 dilution and incubated at room temperature for 30 min in the dark. The supernatant was removed after centrifugation, and cells were washed with FACS loading buffer, centrifuged again and resuspended with the loading buffer for FACS analysis. The recombinant anti-hGIPR functional antibody specifically binds to GIPR-expressing CHO-DHFR-GIPR cells.

[5] = target: T3, human gastric inhibitory polypeptide receptor (hGIPR) (human) (UniProt P48546); assay: cell-based or functional assay
T3 sequence: T1 sequence

B1: GIPR antibody/GLP-1 fusion protein GLP-1-Linker-V1W5 (other)
light: HGEGTFTSDVSSYLEGQAAKEFIAWLVKGGGGGSGGGGSGGGGSDIVLTQSPASLAVSPGQRATITCRASQSVNTAVYSYIHWYQQKPGQPPKLLIKYASNLESGVPARFSGSGSGTDFTLTINPVEANDAANYYCQHSFDFPYTFGGGTKVEIKRTVAAPSVFIFPPSDEQLKSGTASVVCLLNNFYPREAKVQWKVDNALQSGNSQESVTEQDSKDSTYSLSSTLTLSKADYEKHKVYACEVTHQGLSSPVTKSFNRGEC
heavy: QVQLQESGPGLVKPSQTLSLTCTVSGYSITSDYAWNWIRQPPGKGVEWMGYISYRGIATYKPSLKSRITISRDTSKNQFSLKLSSVTAADTAVYYCVRGEYGPGNFDFWGQGTTVTVSSASTKGPSVFPLAPCSRSTSESTAALGCLVKDYFPEPVTVSWNSGALTSGVHTFPAVLQSSGLYSLSSVVTVPSSSLGTKTYTCNVDHKPSNTKVDKRVESKYGPPCPPCPAPEAAGGPSVFLFPPKPKDTLYITREPEVTCVVVDVSQEDPEVQFNWYVDGVEVHNAKTKPREEQFNSTYRVVSVLTVLHQDWLNGKEYKCKVSNKGLPSSIEKTISKAKGQPREPQVYTLPPSQEEMTKNQVSLTCLVKGFYPSDIAVEWESNGQPENNYKTTPPVLDSDGSFFLYSRLTVDKSRWQEGNVFSCSVMHEALHNHYTQKSLSLSLG
- direct cAMP assay: inhibition of GIP-activated hGIPR signaling in CHO-DHFR cells stably expressing human GIPR (IC50) [1]: 7.03 nM
- direct cAMP assay: inhibition of GIP-activated monkey GIPR signaling (IC50) [2]: 4.3 nM
- reporter gene assay (CRE-Luciferase) in CHO-DHFR- cells co-expressing hGLP-1R: activation (EC50) [3]: 0.0174 nM

B2: hGIPR antibody L10H8 (antibody, V domains shown)
VH: QVQLQQSGAEVKKPGSSVKVSCKASGGTFSSYAISWVRQAPGQGLEWMGGIIPTFGTANYAQKFQGRVTITADESTSTAYMELSSLRSEDTAVYYCAQGPIVGAPTDYWGKGTLVTVSS
VL: SYVLTQPPSASGTPGQRVAISCSGSNSNIGSNTVHWYQQLPGAAPKLLIYSNNQRPSGVPDRFSGSNSGTSASLAISRLQSEDEADYYCAAWDDSLNGVVFGGGTKVTVL
notes: Recombinantly expressed whole antibody; also called recombinant anti-hGIPR functional antibody
- binding result [4]: binds

B3: GIPR antibody/GLP-1 fusion protein GLP-1-Linker-L7H6 (protein, part only; not given: heavy and light constant regions, not shown: a dimerising Fc or GST)
light, part: HGEGTFTSDVSSYLEGQAAKEFIAWLVKGGGGGSGGGGSGGGGSDIVLTQSPASLAVSPGQRATITCRASQSVNTAVYSYIHWYQQKPGQPPKLLIKYASNLESGVPARFSGSGSGTDFTLTINPVEANDAANYYCQHSFDFPYTFGGGTKVEIKR
heavy, part: QVQLQESGPGLVKPSQTLSLTCTVSGYSITSDYAWNWIRQPPGKGVEWMGYISYRGIATYKPSLKSRITISRDTSKNQFSLKLSSVTAADTAVYYCVRGEYGPGNFDFWGQGTTVTVSS
- reporter gene assay (CRE-Luciferase) in CHO-DHFR- cells co-expressing hGLP1R: activation (EC50) [3]: 0.04 nM
- direct cAMP assay: inhibition of GIP-activated hGIPR signaling in CHO-DHFR cells stably expressing human GIPR (IC50) [5]: 14.9 nM

B4: hGIPR antibody L7H6 (antibody, V domains shown)
VH: B3 heavy, part
VL: DIVLTQSPASLAVSPGQRATITCRASQSVNTAVYSYIHWYQQKPGQPPKLLIKYASNLESGVPARFSGSGSGTDFTLTINPVEANDAANYYCQHSFDFPYTFGGGTKVEIKR
- direct cAMP assay: inhibition of GIP-activated hGIPR signaling in CHO-DHFR cells stably expressing human GIPR (IC50) [1]: 7.6 nM
